Experimental data reported in article PMC9882595.

Biological target: Filamentous actin (F-actin) (rabbit) (UniProt P68135)
Test: co-sedimentation; high speed actin binding co-sedimentation: 10 uM Vt variant and 20 uM F-actin in actin polymerization buffer (10 mM Tris, 200 mM KCl, 10 mM imidazole, 2.5 mM MgCl2, 1 mM EGTA, 2 mM DTT, pH 7.5), room temperature 1 hr, 185,000 RCF for 60 min; fraction of Vt in the pellet by SDS-PAGE densitometry

| reduction of F-actin binding relative to WT Vt [%] | Substance |
| --- | --- |
| 2 | Vt E1015A (domain or fragment) |
| 2 | Vt E1021A (domain or fragment) |
